Consider 19 molecules from paper PMC5910400 (2018).

Some targets named below: CXCL8 (human); CXCL1 (human, UniProt P09341 35-107); CXCL5 (human); CXCL6 (human); CXCL3 (human, UniProt P19876 35-107); CXCL2 (human, UniProt P19875 35-107).
Common to all, as to assay: BLI
In assay [1] the target is P1243:G4S:P1156 two-warhead evasin (Amblyomma americanum | Ixodes ricinus, UniProt A0A0C9S461;V5HBW0).
Assay [2] addresses P1156:G4S:P1243 two-warhead evasin (Ixodes ricinus | Amblyomma americanum, UniProt V5HBW0;A0A0C9S461).

Sequence of CXCL8 (human) (chain, as listed by the source): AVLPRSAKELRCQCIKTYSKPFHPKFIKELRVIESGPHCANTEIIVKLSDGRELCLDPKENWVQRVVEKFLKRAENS

B1: CCL8 (protein)
chain: QPDSVSIPITCCFNVINRKIPIQRLESYTRITNIQCPKEAVIFKTKRGKEVCADPKERWVRDSMKHLDQIFQNLKP
As for B1, the results for the Kd in assay [1] and in assay [2] were 93 nM and 84 nM, respectively.

B2: CCL3L1 (ligand)
chain: APLAADTPTACCFSYTSRQIPQNFIADYFETSSQCSKPSVIFLTKRGRQVCADPSEEWVQKYVSDLELSA
On to B2, for which the Kd was 6.4 nM in assay [1] and 5.3 nM in assay [2].

B3: CCL19 (protein)
chain: GTNDAEDCCLSVTQKPIPGYIVRNFHYLLIKDGCRVPAVVFTTLRGRQLCAPPDQPWVERIIQRLQRTSAKMKRRSS
For B3, the equilibrium dissociation constant (Kd) in assay [1] was 2.5 nM; in assay [2] it was 3 nM.

B4: CCL18 (protein)
chain: AQVGTNKELCCLVYTSWQIPQKFIVDYSETSPQCPKPGVILLTKRGRQICADPNKKWVQKYISDLKLNA
In the case of B4, the dissociation constant (Kd) came out at 0.3 nM in assay [1] and 0.001 nM in assay [2].

B5: CCL21 (ligand)
chain: SDGGAQDCCLKYSQRKIPAKVVRSYRKQEPSLGCSIPAILFLPRKRSQAELCADPKELWVQQLMQHLDKTPSPQKPAQGCRKDRGASKTGKKGKGSKGCKRTERSQTPKGP
Take B5: binding in assay [2] was put at a Kd of 29 nM.

B6: CCL24 (protein)
chain: VVIPSPCCMFFVSKRIPENRVVSYQLSSRSTCLKAGVIFTTKKGQQFCGDPKQEWVQRYMKNLDAKQKKASPRARAVAVKGPVQRYPGNQTTC
Take B6: the Kd in assay [1] came out at 9.4 nM; in assay [2] it was 4.5 nM.

B7: CCL3 (ligand)
chain: SLAADTPTACCFSYTSRQIPQNFIADYFETSSQCSKPGVIFLTKRSRQVCADPSEEWVQKYVSDLELSA
With B7, binding in assay [1] was put at a Kd of 25 nM. This lies in the double-digit nanomolar range.

B8: CCL11 (protein)
chain: not shown
Consider B8, for which the dissociation constant Kd in assay [1] is 5.1 nM; in assay [2], 1.7 nM.

B9: CCL23 (ligand)
chain: RVTKDAETEFMMSKLPLENPVLLDRFHATSADCCISYTPRSIPCSLLESYFETNSECSKPGVIFLTKKGRRFCANPSDKQVQVCMRMLKLDTRIKTRKN
As for B9, the Kd in assay [1] was 0.37 nM; in assay [2], 0.098 nM.

B10: CCL14 (protein)
chain: TKTESSSRGPYHPSECCFTYTTYKIPRQRIMDYYETNSQCSKPGIVFITKRGHSVCTNPSDKWVQDYIKDMKEN
As to B10, the dissociation constant (Kd) in assay [1] came to 2.1 nM; in assay [2], 1.1 nM.

B11: CCL16 (protein)
chain: QPKVPEWVNTPSTCCLKYYEKVLPRRLVVGYRKALNCHLPAIIFVTKRNREVCTNPNDDWVQEYIKDPNLPLLPTRNLSTVKIITAKNGQPQLLNSQ
B11: the Kd in assay [1] was 0.93 nM; in assay [2] it was 0.65 nM.

B12: CCL13 (ligand)
chain: not shown
For B12, the Kd in assay [1] came out at 1.5 nM; in assay [2], 0.7 nM.

B13: CCL27 (protein)
chain: FLLPPSTACCTQLYRKPLSDKLLRKVIQVELQEADGDCHLQAFVLHLAQRSICIHPQNPSLSQWFEHQERKLHGTLPKLNFGMLRKMG
Consider B13, for which the equilibrium dissociation constant (Kd) in assay [1] was 23 nM; in assay [2], 17 nM.

B14: CCL17 (protein)
chain: ARGTNVGRECCLEYFKGAIPLRKLKTWYQTSEDCSRDAIVFVTVQGRAICSDPNNKRVKNAVKYLQSLERS
Take B14: the Kd in assay [1] is 4.5 nM; in assay [2], 5.4 nM.

B15: P1156 (evasin from Ixodes ricinus), purified, C-terminal StrepII:His tag (natural protein)
chain: DGGADDDNELFTVQYCGMNCTKDEGGTWTGCTGKKEGCKCYHESGKNYGLCLSTEYTDFSQYGNPSDSEIEAAKPKRSDTLSH
Consider B15, for which the Kd was 2.9 nM with CXCL8; 5.8 nM in the assay with CXCL1; 30 nM in the assay with CXCL5; 63 nM with CXCL6; 70 nM with CXCL3; 51 nM with CXCL2.

B16: CCL4L1 (protein)
chain: APMGSDPPTACCFSYTARKLPRNFVVDYYETSSLCSQPAVVFQTKRGKQVCADPSESWVQEYVYDLELN
Take B16: the figures for the Kd in assay [1] and in assay [2] were 14 nM and 15 nM, respectively.

B17: CCL4 (protein)
chain: APMGSDPPTACCFSYTARKLPRNFVVDYYETSSLCSQPAVVFQTKRSKQVCADPSESWVQEYVYDLELN
With B17, the Kd in assay [1] and in assay [2] was 12 nM throughout.

B18: CCL5 (ligand)
chain: SPYSSDTTPCCFAYIARPLPRAHIKEYFYTSGKCSNPAVVFVTRKNRQVCANPEKKWVREYINSLEMS
With B18, the Kd in assay [1] was determined as 3.4 nM; in assay [2] it was 2.6 nM.

B19: CCL15 (protein)
chain: QFTNDAETELMMSKLPLENPVVLNSFHFAADCCTSYISQSIPCSLMKSYFETSSECSKPGVIFLTKKGRQVCAKPSGPGVQDCMKKLKPYSI
Take B19: the Kd in assay [1] is 11 nM; in assay [2] it was 12 nM.
